Test results published in patent publication US20240417462A1 (SHANGHAI CELGEN BIO PHARMACEUTICAL, published 2024).
Residue numbers refer to the chain shown, from its start. Where “and” joins values, the source holds several entries; their conditions need not be identical. Equal entries are not always repeated.

T1: recombinant human TIGIT (Human TIGIT His, Sino Biological, 10917-H08H) (human, UniProt Q495A1 22-138)
T1 construct: range 1-138; bought; also called hTIGIT
T1 sequence (looked up): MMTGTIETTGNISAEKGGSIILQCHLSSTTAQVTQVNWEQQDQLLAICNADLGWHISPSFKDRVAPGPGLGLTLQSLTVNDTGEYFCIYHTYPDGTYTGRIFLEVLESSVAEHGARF

T2: mouse TIGIT antigen (mouse, UniProt P86176 29-148, limits assumed)
T2 construct: construct not described; also called murine TIGIT
T2 sequence (looked up): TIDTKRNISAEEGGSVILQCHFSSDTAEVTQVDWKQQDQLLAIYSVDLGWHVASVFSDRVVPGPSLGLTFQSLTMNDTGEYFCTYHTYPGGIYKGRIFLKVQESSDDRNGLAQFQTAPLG

T3: full-length human TIGIT expressed on CHO-K cell membrane (CHO-K-TIGIT) (human, UniProt Q495A1 22-244)
T3 construct: whole, on cells; also called CHO-TIGIT; membrane TIGIT
T3 sequence (looked up): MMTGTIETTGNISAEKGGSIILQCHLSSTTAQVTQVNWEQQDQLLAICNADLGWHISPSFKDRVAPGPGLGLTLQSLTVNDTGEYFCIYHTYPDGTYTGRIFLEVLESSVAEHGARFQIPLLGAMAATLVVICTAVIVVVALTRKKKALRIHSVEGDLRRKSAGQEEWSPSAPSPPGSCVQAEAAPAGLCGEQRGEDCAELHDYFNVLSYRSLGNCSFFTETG

B1: anti-human TIGIT human mouse chimeric monoclonal antibody 7103-07 (hFc) (antibody, V domains shown)
VH: EVQVVESGGGLVKPGGTLKLSCAASGFTFSTYAMSWVRQSPEQRLEWVAEISSGGSHTFYSDTVTGRFTISRDNAQNTLYLEMNSLRSEDTAMYYCARKTLDYYALDYWGQGTSVTVSS
VL: DVQITQSPSYLAASPGETITINCRASKSISKYLAWYQEKPGKTNKLLIYSGSRLQSGIPSKFSGSGYGTDFTLTISSLEPEDFAMYYCQQHNEYPWTFGGGTKVEIK
notes: also called 7303-07 (hFc); human mouse chimeric antibody
B2: humanized anti-human TIGIT monoclonal antibody P04666 (antibody, V domains shown)
VH: B1 VH with T17S, K19R, S40A, S61A, T65K, Q76K, E82Q, S88A, M93V, S114T
VL: DVQITQSPSSVSASVGETITINCRASKSISKYLAWYQQKPGKAPKLLIYSGSRLQSGVPSRFSGSGSGTDFTLTISSLQPEDFATYYCQQHNEYPWTFGGGTKLEIK
B3: humanized anti-human TIGIT monoclonal antibody P04667 (antibody, V domains shown)
VH: B1 VH with T17S, K19R, S40A, S61A, T65K, Q76K, E82Q, S88A, M93V, S114T
VL: B2 VL with V2I, I4M, N22T
B4: Tiragolumab (antibody, V domains shown)
VH: EVQLQQSGPGLVKPSQTLSLTCAISGDSVSSNSAAWNWIRQSPSRGLEWLGKTYYRFKWYSDYAVSVKGRITINPDTSKNQFSLQLNSVTPEDTAVFYCTRESTTYDLLAGPFDYWGQGTLVTVSS
VL: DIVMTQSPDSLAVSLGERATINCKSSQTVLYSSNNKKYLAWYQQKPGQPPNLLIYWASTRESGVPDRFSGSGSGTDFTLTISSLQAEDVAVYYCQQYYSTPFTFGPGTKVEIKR
B5: anti-human TIGIT human mouse chimeric monoclonal antibody 7103-06 (hFc) (antibody, V domains shown)
VH: B1 VH with V2E, V4L, Q43K, H57Y, F59Y, Q76K, N84S, Q111H
VL: B1 VL with S26N, S28T, V104L
B6: anti-human TIGIT human mouse chimeric monoclonal antibody 7103-01 (hFc) (antibody, V domains shown)
VH: QVQLQQPGAELVKPGASVKLSCKASGYTFISYNIYWVKQRPGQGLEWIGGVNPSNGNTNFNENFKSKATLTVDKSSSTAYMQLSSLTSDDSAVYFCTRGNYYGYEFAYWGQGTLVTVSA
VL: DIVMTQSHKFMSTSVGDRVSITCKASQHVSTAVAWYQQKPGQSPKLLIYSPSYRYTGVPDRFTGSGSGTDFTFTISSVQAEDLAVYYCQQHYSTPWTFGGGTKLEIK
notes: also called 7301-01 (hFc)
B7: anti-human TIGIT human mouse chimeric monoclonal antibody 7103-03 (hFc) (antibody, V domains shown)
VH: EVQLQQSGPELVKPGASVKISCKTSGYTFTEYTMHWVKQSHGKSLEWIGGINPNNGGTSYNQKFKGKATLTVDKSSSTAYMELRSLTSEDSAVYYCARGAYYRYDFDYWGQGTTLTVSS
VL: B6 VL with H28D, S30R, A34V, P51A
B8: anti-human TIGIT human mouse chimeric monoclonal antibody 7103-04 (hFc) (antibody, V domains shown)
VH: VQLQESGAELVKPGASVKLSCRASGYTFTDYFVYWVKQRPGQGLEWIGGINPSNGGATFNEKFKNKATLTVDTSSSTAYMQLSSLTSEDSAIYYCTRGNFYGYEFAYWGQGTLVTVSA
VL: B6 VL with M11I, A34V, S93I
B9: anti-human TIGIT mouse monoclonal antibody 7103-01 (antibody, V domains shown)
VH: B6 VH
VL: B6 VL
notes: also called 31E10-2-1

Target: T1, recombinant human TIGIT (Human TIGIT …)
Test: ELISA, recombinant human TIGIT (His) coated, anti-human-Fc-AP, OD405/490
Experimental: (§1) Antigen hTIGIT (Human TIGIT (His), Sino Biological, 10917-H08H) was diluted into 1 μg/mL with a NaHCO₃ solution of pH 9.6, 50 μl per well was added to a 96-well ELISA plate, and placed overnight in refrigerator at 4° C.
(§2) In order to determine whether the humanized TIGIT monoclonal antibody of the present disclosure could bind to the recombinant human TIGIT protein, in vitro testing was performed. Murine antibodies and Tiragolumab (Tira) were used as positive controls. The experimental method was the same as in Example 3.1.

EC50	Binder
0.0095 µg/mL	B1
0.0137 µg/mL and 0.0915 nM	B2
0.0125 µg/mL and 0.0836 nM	B3
0.0242 µg/mL	B4

Target: T1, recombinant human TIGIT (Human TIGIT …)
Test: BLI, antibody captured on anti-human Fc probe, TIGIT-His in solution
Experimental: The dissociation constant (Kd) of the human mouse chimeric TIGIT monoclonal antibody was detected by using a GATORS (ProbeLife) detection instrument and an HFC (LOT #2007065 Tray 2), Human antibody Capture probe. The human mouse chimeric TIGIT monoclonal antibody was diluted to 30 nM in a binding buffer (Q buffer [PBS (10 mM PH7.4)+0.02% Tween 20+0.2% BSA]). The recombinant human TIGIT protein was diluted in Q buffer in a 2-fold gradient to different concentrations varying in the range of 40 nM to 10 nM. A kinetic correlation determination was initiated by placing an antibody capture sensor in the continuously diluted antigen solution described above. Octet Data Acquisition software was opened and New Kinetics Experiment-Basic Kinetics mode was selected.

Kd	koff	kon	Binder
1.72 nM	0.00167 s⁻¹	971000 M⁻¹ s⁻¹	B1
1.29 nM	0.00139 s⁻¹	1.07e+06 M⁻¹ s⁻¹	B5
0.574 nM	0.000405 s⁻¹	706000 M⁻¹ s⁻¹	B6
1.14 nM	0.00091 s⁻¹	801000 M⁻¹ s⁻¹	B7
0.661 nM	0.000558 s⁻¹	845000 M⁻¹ s⁻¹	B8

Target: T1, recombinant human TIGIT (Human TIGIT …)
Test: ELISA, coated human TIGIT-His

EC50	Binder
0.554 nM	B5
0.0647 nM	B9
0.499 nM	B6
0.38 nM	B7
0.554 nM	B8

Target: T1, recombinant human TIGIT (Human TIGIT …)
Test: BLI, antibody captured on anti-human Fc probe, TIGIT-His in solution
Remark: another data set of the same source

Kd	koff	kon	Binder
1.73 nM	0.000951 s⁻¹	549000 M⁻¹ s⁻¹	B6

Target: T1, recombinant human TIGIT (Human TIGIT …)
Test: ELISA, recombinant human TIGIT (His) coated, anti-human-Fc-AP, OD405/490
Remark: another data set of the same source
Experimental: as §1, §2

EC50	Binder
0.0806 µg/mL	B4

Target: T2, mouse TIGIT antigen
Test: ELISA, coated mouse TIGIT
Experimental: (§3) The cynomolgus monkey or mouse TIGIT antigen of was coated with the same method as above, the anti-human TIGIT mouse monoclonal antibody was diluted in gradient, and then the anti-mouse Fab secondary antibody was added (Jackson Immuno Research, 515-035-072) for TMB development. ELISA was used to detect the binding of 8 mouse monoclonal antibodies to recombinant cynomolgus monkey TIGIT.

binding result	Binder
no binding	B9

Target: T1, recombinant human TIGIT (Human TIGIT …)
Test: competition ELISA, human TIGIT (His) coated, antibody titrated against fixed CD155, bound CD155 detected, OD450/655

IC50	Binder
0.041 µg/mL	B1
0.019 µg/mL	B2
0.094 µg/mL	B3
0.116 µg/mL	B4

Target: T4, recombinant cynomolgus monkey TIGIT (cynomolgus monkey, UniProt A0A7N9I9V4 89-209)
T4 construct: construct not described; also called cynomolgus TIGIT
T4 sequence (A0A7N9I9V4 entry or part of it): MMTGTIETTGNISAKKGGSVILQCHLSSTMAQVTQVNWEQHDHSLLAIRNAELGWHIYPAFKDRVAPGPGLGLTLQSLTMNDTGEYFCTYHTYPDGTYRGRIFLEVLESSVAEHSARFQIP
Test: ELISA, recombinant cynomolgus TIGIT coated, anti-mouse Fab secondary antibody, TMB, OD450/655nm
Experimental: as §3

EC50	Binder
0.16 µg/mL	B9

Target: T1, recombinant human TIGIT (Human TIGIT …)
Test: competition ELISA, coated TIGIT-His, CD155-mFC as competitor
Experimental: Antigen TIGIT (Human TIGIT (His), Sino Biological, 10917-H08H) was diluted with pH 9.6 of NaHCO₃ solution into 1 μg/mL, 50 μL per well was added to a 96-well ELISA plate, and placed overnight at 4° C. in a refrigerator. The next day, after washing with PBS twice, plate was blocked with 3% BSA (100 μL per well) by incubating at 37° C. for 1.5 h, and washed 4 times with PBST.

IC50	Binder
1.7 nM	B1
2.03 nM	B5
4.03 nM	B6
1.46 nM	B7
3.3 nM	B8
5.24 nM	B4

Target: T4, recombinant cynomolgus monkey TIGIT
Test: ELISA, coated cynomolgus TIGIT
Experimental: as §3

EC50	Binder
1.07 nM	B9

Target: T1, recombinant human TIGIT (Human TIGIT …)
Test: competition ELISA on recombinant human TIGIT, CD155 as competitor

IC50	Binder
0.127 nM	B2
0.631 nM	B3

Target: T3, full-length human TIGIT expressed on …
Test: flow cytometry, CHO-TIGIT cells

EC50	Binder
1.35 nM and 0.927 nM	B1
0.873 nM	B5
0.499 nM	B9
1.08 nM	B6
0.596 nM	B7
0.867 nM	B8
1.36 nM and 3.84 nM and 1.72 nM	B4

Target: T1, recombinant human TIGIT (Human TIGIT …)
Test: BLI, antibody captured on anti-human Fc probe, TIGIT-His in solution
Remark: another data set of the same source

Kd	koff	kon	Binder
2.96 nM	0.00169 s⁻¹	573000 M⁻¹ s⁻¹	B1
2.19 nM	0.00347 s⁻¹	1.59e+06 M⁻¹ s⁻¹	B2
4.2 nM	0.00565 s⁻¹	1.35e+06 M⁻¹ s⁻¹	B3

Target: T1, recombinant human TIGIT (Human TIGIT …)
Test: competition ELISA, coated TIGIT-His, CD155-Fc as competitor
Experimental: In order to evaluate the competition between the anti-human TIGIT mouse monoclonal antibody and CD155 (Human CD155 (Fc Tag): Sino Biological, 10109-H02H) for binding to recombinant human TIGIT (Human TIGIT(His), Sino Biological, 10917-H08H), ELISA detection was performed, and the specific steps were as follows:
Primary antibody incubation: the plate was washed twice with PBS (250 μl/well), and patched dry. 6 μg/ml of CD155 was respectively diluted in a binding solution and added into a 96-well dilution plate at 60 μl/well. Then the screened hybridoma antibody was diluted with the binding solution, (the highest concentration was 30 μg/ml), and diluted to 3 times of concentration, and added into the corresponding dilution plate above at 60 μl/well. After mixing well, the sample was added to the coated 96-well ELISA plate at 100 μl/well. The plate was sealed with a sealing film and placed at 37° C. for 1.5 hours.
Secondary antibody incubation: the blocking solution was discarded, the plate was washed with 250 μl PBST for 3 times, and patched dry.

IC50	Binder
0.178 nM	B9
